± gives the half width of the 95% confidence interval.
experiment: folding stability dG unfold (combined trypsin and chymotrypsin); higher = more stable
In short: (§1)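 K50 was inferred by Bayesian fitting of sequencing counts obtained after protease digestion of designed mini-proteins. Unfolding free energy was derived by comparison with a sequence-predicted unfolded-state K50 and a shared folded-state K50, for each protease or both combined. The mini-proteins were under 80 residues, had no cysteine, were carried in a PA-tagged cDNA display construct, and were kept only if AlphaFold2 dimer inter-PAE exceeded 15.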

Row | Sequence | folding stability dG unfold [kcal/mol]
1 | SAGGMKTTLLKEEELPGGVKRKIYLTENSSGGYYYVVTVTTELEPPAESKVSVSSKKISPEELKKLLSAGGS [r16_45_JUSTAS] | 3.32 ± 0.17
2 | SAGGMKKKIVEIEIVEVKYDEETNEVTIKIKIKNENGEEIEIEVTMSKEELEKMTPEELKKLVKELLKSAGG [r13_512_TrROS_Hall] | 2.12 ± 0.3
3 | SAGGSAGGSAGAVLPIKNGWVAVIHMGPDGRVTINIYPPDKPREIEIPVNEPMEIEIFPWSAGGSAGGSAGG [r11_164_TrROS] | 1.78 ± 0.091
4 | SAGMKVLKFKSKEELLEAIDKSPEPVLVINKKTGKKEVLSKEELKKKLKPGDEIEIVLLKDLSPEELKKSAG [r5_677_TrROS_Hall] | 1.4 ± 0.14
5 | SAGGSAGGSAGGSMEITVETYPEVPLVRFTLPGGELVLLPVPPDVPEEEIRALAEALLASAGGSAGGSAGGS [r10_33_JUSTAS] | 0.874 ± 0.12
6 | SAGGSAGGSAGGWIRSPGGWWVNIDIEIFEIPIDKNMSPEMANKFKRVRIIVIEITVVKRSAGGSAGGSAGG [r7_324_TrROS] | 3.84 ± 0.25
7 | SAGGVRKIEFRIDLPDPNVTIEEIVERILKELGLKPEEAIVEVLKIEEVEDEDGIPHIRIDVKIYVPDKSAG [r5_528_TrMRF] | 3.21 ± 0.059
8 | SAGGSAGGSAGGSNMYIEIDEIERNPDDWYQITVKIYNPDNGEKEKITFYMPPGQEIKISAGGSAGGSAGGS [r4_133_TrROS] | 1.25 ± 0.2
9 | SAGGSAGGMKIRIEIEMTPEEVEALREELEKAGYRVEVERREDGRVRVTIEIELPPPPPPPEEESAGGSAGG [r6_8_TrROS_Hall] | 3.46 ± 0.2
10 | SAMLGAEELVRRIAEEIERRLGVPAGFDVPVRVYRPEDALVIDAYIVARGPDGEPLGERRITLVLRPEDSAG [r14_708_TrMRF] | 2.93 ± 0.11
11 | SAGKIPPGEEQKKKIKLGGKEIKIKMWTYKNPDGQPHMMFRVEYDGEPGIFNPDSGRPMTPDDIKKMLKSAG [r5_138_TrROS] | 0.788 ± 0.26
12 | SAGGMKITIKEDEETGEKVIEIEDEETGERVRVVFNPDGEEIEIEVPSPEVLEALKELGIEKVEVEEVSAGG [r13_511_TrROS_Hall] | 0.976 ± 0.19
13 | SAMTLEEAKKKGLVVIRVKIEVTLPNGEKREFERVIVAESLEEALEALREELEREGYKVEIVEIEIEKLSAG [r14_854_TrROS_Hall] | 2.04 ± 0.21
14 | SAGGSAGGEELLATATPVTVGDEVYYRFTIRNPDGTPIGDRLVPASVLSGYSPDTVITLPPDLLSAGGSAGG [r6_34_JUSTAS] | 1.04 ± 0.094
15 | SAGGSAGGSAGGIEIRGPNGAELKIESDPDWGMVSIEMPGNRQEIQIPIPLPKPDPEDKNSAGGSAGGSAGG [r7_383_TrROS] | 0.568 ± 0.072
16 | SAGGSAGGSAGSPLEEALAEARATGGPVTIRLPDGSEVVITVTEDEGELRVEVRSAAELGSAGGSAGGSAGG [r17_463_JUSTAS] | 1 ± 0.099
17 | SGQHKVTVPIEIRIYPPDPDGKWKPIGEIPIPVTYEYPKDQPEKAERQAREQVIDEIKKFAKKNGYRIYISA [r9_356_TrROS] | 0.361 ± 0.2
18 | MEITTTPYTDPNSETTYWLITATLPDGRRITIVITKPAGGPWTVEVYAPDGTRISSKTYSSEEEAIEEALTS [r1_478_JUSTAS] | 3.25 ± 0.052
19 | SAGGMTITVTVPEVPPDRTVTVEVYKPGEKLGSYSGTLNQPKNVTYTFTVPPATITINYSDGKTYPIPLSAG [r5_646_JUSTAS] | 3.01 ± 0.25
20 | SAGGSAGGSTIVIRLSKEELENMTAEELAEALAEEGAEVTVTVEYDEETDELVVTIEIHPEDLSAGGSAGGS [r12_716_TrROS_Hall] | 2.11 ± 0.13
21 | SAGGMLVTFTTPDGKTVTVEVDSLEEAKKVIAEKLGLPPDTVLDVTVTDPVTGEVTSETVTIPVPVPESAGG [r13_145_JUSTAS] | 3.96 ± 0.049

experiment: folding stability dG unfold from trypsin proteolysis; higher = more stable
In short: as §1

Row | Sequence | folding stability dG unfold [kcal/mol]
22 | SAGGSAGGSAGGGFYVKEIKGVKFGDKTLYIIRVYDDKGNEVFDVVAPPEVLKNLPPEVLSAGGSAGGSAGG [r7_263_TrMRF] | 1.04 ± 0.015
23 | SAGGSAGGSATQTIPFENPDGHPWTGTVEKRPDGMVKIDLTFPGGEKKEFYIPPGEEIRLPFSAGGSAGGSA [r18_115_TrROS] | 0.775 ± 0.057
24 | SAGGSAGGSMKIVIVVDEDGSVRVRIEETGEEITFPKGMTAEEIAELLKKKFPNLEVEIVEVPSAGGSAGGS [r12_423_TrROS_Hall] | 4.28 ± 0.19
25 | SAGGMRVERSTSPSGEPVLLITLYLPDGTRVAEAPLRLDPARGGLTEEELEAVLKEIDLPEDVEVELRSAGG [r13_479_JUSTAS] | 0.517 ± 0.11
26 | SGMEQKVEVLRVGAPGEEAVTRFTFKFEDKEFTLEASARLPDGSLVLLDFHVYRDPEGTFRVDVVVYPGFSA [r9_255_TrMRF] | 2.01 ± 0.069
27 | SAGGSAGGSAGGSGQEIPFMLIIKDPDGELDYIIQIEMRRVPNGGVDIEITEIIPAKDISAGGSAGGSAGGS [r4_117_TrROS] | 1.55 ± 0.1
28 | SAGGSAGGSAGGMEVEYNPEELSPESEVTITVTLPGGEKVELKAKIYTNPDGSLSYELESAGGSAGGSAGGS [r10_390_JUSTAS] | 0.697 ± 0.047
29 | SAGGKTVEIKVKVKSLEELKAAIEALKKAGIKDVKVTKIELEKNEDGSLYARVTIEVEPAPEVVEEKESAGG [r13_174_TrROS_Hall] | 2.78 ± 0.095
30 | SAGGKKKKLKIKIVIVAKSKEEAEKLAKELAEKLKELGIKEVEIEVEVIELPPPPPPPKPDSPEYKKKSAGG [r13_6_TrROS_Hall] | -0.453 ± 0.34
31 | SAGGSAGGSAGGGELKYRTLTVDLPVDDPDGRKLPRRLVITFPASNPELAEAFLKALGYSAGGSAGGSAGGS [r10_1062_TrMRF] | 1.11 ± 0.012
32 | SAGGSAGGSAGGEEKTEEEKRKEERLKPAPPLVLELDVEVDGKLYRFRLVNGKLEIEELPSAGGSAGGSAGG [r7_156_TrROS_Hall] | 1.71 ± 0.047
33 | SPPNFRMEQEEIEIEIRFPDGWRVSVEIEIHRMRFPDGDEMLHIDIKVEADPNNPGMRKLAKNLVEEIINSA [r9_908_TrROS] | 1.24 ± 0.21
34 | SAGGSAGGSGWYFHFEVSIWVMEFKYPGPDGKTMTMWFIMIEIKIEIVPPPPITPEDAAKMNGSAGGSAGGS [r12_1060_TrROS] | 2.66 ± 0.06
35 | SAGKEKVLVIPVKVKPGEKIVVKVPSNSKILIIDLESGEIYEIDVPENVEPVFILPENKEYLIAVVFKSAGG [r19_78_TrMRF] | 2.66 ± 0.081
36 | SAGGMSPVKVAEKTYVIPLPSSMTKEEAKEEVKKELVPKGIDKIDIPISEDPNKGTLIIKVTVYKYPNESAG [r5_924_JUSTAS] | 0.297 ± 0.2
37 | YKAKITSVSFIPGEGYIVFNVEVIGPDGIPATFPIVIKIEIEPEEPDPAPPVIKDPNGKVYNPIIPKWFDAS [r1_270_TrMRF] | 1.5 ± 0.043
38 | SAGGSAGGSAGKKKIVFLVEDPEEALKTLTFPKDANIEIEKIEVKPLPNGLYEVVIYLKNSAGGSAGGSAGG [r11_150_TrMRF] | 2.76 ± 0.081
39 | SAGGSAGGSAGGGMSIEEVKAKIEEEVGVEVSIEKVSGNTYKITLPKNNETYTIKIPKKSAGGSAGGSAGGS [r10_1032_JUSTAS] | 0.396 ± 0.062
40 | SAGGSAPPAVEEIAKILEELFPGYRVVAEAEPVRDPETDEVLLRIRVAVFDENGKVILELEITLPLSAGGSA [r15_1048_TrMRF] | 3.89 ± 0.054
41 | GFVLIPFRLDDPDVTAGEIAEEVEKALPPEYGPLRLRVFFEDGSVLELEPGEKLGEHFEPDDEILVLVEGDS [r1_56_TrMRF] | 1.24 ± 0.042
42 | SAGGSAGGSAGGPAVPVRTTLPDGRVVYYDPESGLTTIYVPETNETLVRDPATGTVTALSAGGSAGGSAGGS [r10_1057_JUSTAS] | 1.26 ± 0.027

Row | Sequence | folding stability dG unfold [kcal/mol]
43 | SAGGMKTTLLKEEELPGGVKRKIYLTENSSGGYYYVVTVTTELEPPAESKVSVSSKKISPEELKKLLSAGGS [r16_45_JUSTAS] | 2.93 ± 0.14
44 | SAGGMKKKIVEIEIVEVKYDEETNEVTIKIKIKNENGEEIEIEVTMSKEELEKMTPEELKKLVKELLKSAGG [r13_512_TrROS_Hall] | 2.16 ± 0.2
45 | SAGGSAGGSAGAVLPIKNGWVAVIHMGPDGRVTINIYPPDKPREIEIPVNEPMEIEIFPWSAGGSAGGSAGG [r11_164_TrROS] | 2.08 ± 0.053
46 | SAGMKVLKFKSKEELLEAIDKSPEPVLVINKKTGKKEVLSKEELKKKLKPGDEIEIVLLKDLSPEELKKSAG [r5_677_TrROS_Hall] | 1.05 ± 0.097
47 | SAGGSAGGSAGGSMEITVETYPEVPLVRFTLPGGELVLLPVPPDVPEEEIRALAEALLASAGGSAGGSAGGS [r10_33_JUSTAS] | 0.897 ± 0.025
48 | SAGGSAGGSAGGWIRSPGGWWVNIDIEIFEIPIDKNMSPEMANKFKRVRIIVIEITVVKRSAGGSAGGSAGG [r7_324_TrROS] | 3.31 ± 0.16
49 | SAGGVRKIEFRIDLPDPNVTIEEIVERILKELGLKPEEAIVEVLKIEEVEDEDGIPHIRIDVKIYVPDKSAG [r5_528_TrMRF] | 3.54 ± 0.1
50 | SAGGSAGGSAGGSNMYIEIDEIERNPDDWYQITVKIYNPDNGEKEKITFYMPPGQEIKISAGGSAGGSAGGS [r4_133_TrROS] | 0.896 ± 0.076
51 | SAGGSAGGMKIRIEIEMTPEEVEALREELEKAGYRVEVERREDGRVRVTIEIELPPPPPPPEEESAGGSAGG [r6_8_TrROS_Hall] | 3.08 ± 0.24
52 | SAMLGAEELVRRIAEEIERRLGVPAGFDVPVRVYRPEDALVIDAYIVARGPDGEPLGERRITLVLRPEDSAG [r14_708_TrMRF] | 1.94 ± 0.032
53 | SAGKIPPGEEQKKKIKLGGKEIKIKMWTYKNPDGQPHMMFRVEYDGEPGIFNPDSGRPMTPDDIKKMLKSAG [r5_138_TrROS] | 0.0292 ± 0.19
54 | SAGGMKITIKEDEETGEKVIEIEDEETGERVRVVFNPDGEEIEIEVPSPEVLEALKELGIEKVEVEEVSAGG [r13_511_TrROS_Hall] | 0.732 ± 0.13
55 | SAMTLEEAKKKGLVVIRVKIEVTLPNGEKREFERVIVAESLEEALEALREELEREGYKVEIVEIEIEKLSAG [r14_854_TrROS_Hall] | 2.76 ± 0.16
56 | SAGGSAGGEELLATATPVTVGDEVYYRFTIRNPDGTPIGDRLVPASVLSGYSPDTVITLPPDLLSAGGSAGG [r6_34_JUSTAS] | 1.29 ± 0.024
57 | SAGGSAGGSAGGIEIRGPNGAELKIESDPDWGMVSIEMPGNRQEIQIPIPLPKPDPEDKNSAGGSAGGSAGG [r7_383_TrROS] | 0.838 ± 0.038
58 | SAGGSAGGSAGSPLEEALAEARATGGPVTIRLPDGSEVVITVTEDEGELRVEVRSAAELGSAGGSAGGSAGG [r17_463_JUSTAS] | 0.99 ± 0.027
59 | SGQHKVTVPIEIRIYPPDPDGKWKPIGEIPIPVTYEYPKDQPEKAERQAREQVIDEIKKFAKKNGYRIYISA [r9_356_TrROS] | 0.452 ± 0.15
60 | MEITTTPYTDPNSETTYWLITATLPDGRRITIVITKPAGGPWTVEVYAPDGTRISSKTYSSEEEAIEEALTS [r1_478_JUSTAS] | 3.3 ± 0.051
61 | SAGGMTITVTVPEVPPDRTVTVEVYKPGEKLGSYSGTLNQPKNVTYTFTVPPATITINYSDGKTYPIPLSAG [r5_646_JUSTAS] | 2.22 ± 0.19
62 | SAGGSAGGSTIVIRLSKEELENMTAEELAEALAEEGAEVTVTVEYDEETDELVVTIEIHPEDLSAGGSAGGS [r12_716_TrROS_Hall] | 2.12 ± 0.12
63 | SAGGMLVTFTTPDGKTVTVEVDSLEEAKKVIAEKLGLPPDTVLDVTVTDPVTGEVTSETVTIPVPVPESAGG [r13_145_JUSTAS] | 3.3 ± 0.09

Source: the supplement of paper PMC12764529
